Where “and” joins values, the source holds several entries; their conditions need not be identical. Equal entries are not always repeated. Where two headings read alike, the source gives them in different places.
Tests used:
[1] = molecular target: N1 neuraminidase from A/Swine/Jiangsu/J004/2018 (Influenza A virus A/Swine/Jiangsu/J004/2018 (H1N1))
[2] = molecular target: N1 neuraminidase from A/Swine/Jiangsu/J004/2018 (Influenza A virus A/Swine/Jiangsu/J004/2018 (H1N1)); remark: listed apart in the source
[3] = molecular target: N2 neuraminidase from A/South Australia/34/2019 (Influenza A virus A/South Australia/34/2019)
[4] = molecular target: N2 neuraminidase from A/South Australia/34/2019 (Influenza A virus A/South Australia/34/2019); remark: listed apart in the source
[5] = molecular target: N1 neuraminidase from A/Swine/Jiangsu/J004/2018 (Influenza A virus A/Swine/Jiangsu/J004/2018 (H1N1)); remark: listed apart in the source
N1 = test: Bio-Layer Interferometry (BLI)
N2 = test: Bio-Layer Interferometry (BLI)
N9 NA (FIGS. 96A-96C) = test: Bio-Layer Interferometry (BLI)
N9 = test: Bio-Layer Interferometry (BLI)
[6] = molecular target: B/BRISBANE/60/2008 (VICTORIA) (Influenza B virus); test: flow cytometry, NA transiently expressed on Expi-CHO cells
[7] = molecular target: B/MALAYSIA/3120318925/2013 (YAMAGATA) (Influenza B virus); test: as above
[8] = molecular target: B/WISCONSIN/1/2010 (YAMAGATA) (Influenza B virus); test: as above
[9] = molecular target: IBV neuraminidase from B/Malaysia/2506/2004 (Victoria) (Influenza B virus B/Malaysia/2506/2004); test: as above
[10] = molecular target: IBV neuraminidase from B/Yamanashi/166/1998 (Yamagata) (Influenza B virus B/Yamanashi/166/1998); test: as above
[11] = molecular target: N1 neuraminidase from A/Stockholm/18/2007 (Influenza A virus A/Stockholm/18/2007); test: as above
[12] = molecular target: N2 A/HONG KONG/68 (Influenza A virus); test: as above
[13] = molecular target: N3 neuraminidase from A/Canada/rv504/2004 (Influenza A virus A/Canada/rv504/2004); test: as above
[14] = molecular target: N4 A/MALLARD DUCK/…/30/2011 (Influenza A virus); test: as above
[15] = molecular target: N6 neuraminidase from A/swine/Ontario/01911/1/99 (Influenza A virus A/swine/Ontario/01911/1/99); test: as above
[16] = molecular target: N7 neuraminidase from A/Netherlands/078/03 (Influenza A virus A/Netherlands/078/03); test: as above
[17] = molecular target: N8 A/HARBOR SEAL/NEW …/179629/2011 (Influenza A virus); test: as above
[18] = molecular target: N9 neuraminidase from A/Anhui/1/2013 (Influenza A virus A/Anhui/1/2013 (H7N9)); test: as above
NA-9 = test: BLI, antibody loaded on the sensor (Loading Sample ID: FNI9), NA-9 as sample
[19] = molecular target: N1 neuraminidase from A/Swine/Jiangsu/J004/2018 (Influenza A virus A/Swine/Jiangsu/J004/2018 (H1N1)); test: flow cytometry, cells infected with A/Swine/Jiangsu/J004/2018, antibody 2 µg/ml
[20] = molecular target: N1 neuraminidase from A/Swine/Jiangsu/J004/2018 (Influenza A virus A/Swine/Jiangsu/J004/2018 (H1N1)); test: flow cytometry, cells infected with A/Swine/Jiangsu/J004/2018, antibody 10 µg/ml
[21] = molecular target: N1 neuraminidase from A/Swine/Jiangsu/J004/2018 (Influenza A virus A/Swine/Jiangsu/J004/2018 (H1N1)); test: flow cytometry, cells infected with A/Swine/Jiangsu/J004/2018, antibody 50 µg/ml
[22] = molecular target: human FcγRIIIa (F158 allele) (human) (UniProt P08637)
[23] = molecular target: human FcγRIIIa (V158 allele) (human) (UniProt P08637)
[24] = molecular target: human FcγRIIa (H131 allele) (human) (UniProt P12318)
human FcγRIIb (human) [25] = molecular target: human FcγRIIb (human) (UniProt P31994)
human C1q (human) [26] = molecular target: human C1q (human) (UniProt P02745); test: MSD
human FcRn (human) [27] = molecular target: human FcRn (human) (UniProt P55899); test: MSD
[28] = molecular target: human FcγRIIIa (F158 allele) (human) (UniProt P08637); test: MSD
[29] = molecular target: human FcγRIIIa (V158 allele) (human) (UniProt P08637); test: MSD
human FcγRIIIb (human) [30] = molecular target: human FcγRIIIb (human) (UniProt O75015); test: MSD
[31] = molecular target: human FcγRIIa (H131 allele) (human) (UniProt P12318); test: MSD
[32] = molecular target: human FcγRIIa (R131 allele) (human) (UniProt P12318); test: MSD
human FcγRIIb (human) [33] = molecular target: human FcγRIIb (human) (UniProt P31994); test: MSD
human C1q (human) [34] = molecular target: human C1q (human) (UniProt P02745); test: MSD [cont'd]
human FcRn (human) [35] = molecular target: human FcRn (human) (UniProt P55899); test: MSD [cont'd]
[36] = molecular target: human FcγRIIIa (F158 allele) (human) (UniProt P08637); test: MSD [cont'd]
[37] = molecular target: human FcγRIIIa (V158 allele) (human) (UniProt P08637); test: MSD [cont'd]
human FcγRIIIb (human) [38] = molecular target: human FcγRIIIb (human) (UniProt O75015); test: MSD [cont'd]
[39] = molecular target: human FcγRIIa (H131 allele) (human) (UniProt P12318); test: MSD [cont'd]
[40] = molecular target: human FcγRIIa (R131 allele) (human) (UniProt P12318); test: MSD [cont'd]
human FcγRIIb (human) [41] = molecular target: human FcγRIIb (human) (UniProt P31994); test: MSD [cont'd]
human FcRn (human) [42] = molecular target: human FcRn (human) (UniProt P55899); test: MSD, pH 6 [cont'd]
[43] = molecular target: human FcγRIIa (H131 allele) (human) (UniProt P12318); test: Table B summary, vs fucosylated wild-type human IgG1
[44] = molecular target: human FcγRIIa (R131 allele) (human) (UniProt P12318); test: as above

human FcRn (human), sequence (P55899 24-297 limits assumed, chain 1 of 2): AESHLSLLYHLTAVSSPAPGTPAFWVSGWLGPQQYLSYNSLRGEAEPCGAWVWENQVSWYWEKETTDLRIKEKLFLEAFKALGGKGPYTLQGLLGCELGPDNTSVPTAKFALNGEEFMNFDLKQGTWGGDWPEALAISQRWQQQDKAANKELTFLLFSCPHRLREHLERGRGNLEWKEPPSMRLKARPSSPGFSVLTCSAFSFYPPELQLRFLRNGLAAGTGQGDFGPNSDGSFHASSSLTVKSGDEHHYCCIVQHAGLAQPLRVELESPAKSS
human FcRn (human), sequence (chain, as listed by the source limits assumed, chain 2 of 2): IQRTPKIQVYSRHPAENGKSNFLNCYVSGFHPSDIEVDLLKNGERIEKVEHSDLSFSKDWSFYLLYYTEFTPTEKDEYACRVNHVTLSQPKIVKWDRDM
human FcγRIIa (H131 allele) (human), sequence (P12318 34-218 limits assumed): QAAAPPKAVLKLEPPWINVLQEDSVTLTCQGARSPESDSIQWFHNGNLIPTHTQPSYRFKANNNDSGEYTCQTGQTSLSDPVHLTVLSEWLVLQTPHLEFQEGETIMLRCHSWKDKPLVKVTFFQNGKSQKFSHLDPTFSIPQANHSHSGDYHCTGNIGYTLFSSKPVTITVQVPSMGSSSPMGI
human FcγRIIa (R131 allele) (human), sequence (P12318 34-218 H167R limits assumed): as the sequence (P12318 34-218 limits assumed) above, with H134R counted along it
human FcγRIIIa (V158 allele) (human), sequence (P08637 17-208 F176V limits assumed): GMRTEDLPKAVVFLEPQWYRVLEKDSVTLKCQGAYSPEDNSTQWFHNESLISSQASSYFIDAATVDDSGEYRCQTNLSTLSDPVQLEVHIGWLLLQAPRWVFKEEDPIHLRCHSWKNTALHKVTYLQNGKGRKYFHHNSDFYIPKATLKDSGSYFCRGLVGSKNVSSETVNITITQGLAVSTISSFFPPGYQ
human FcγRIIb (human), sequence (P31994 43-217 limits assumed): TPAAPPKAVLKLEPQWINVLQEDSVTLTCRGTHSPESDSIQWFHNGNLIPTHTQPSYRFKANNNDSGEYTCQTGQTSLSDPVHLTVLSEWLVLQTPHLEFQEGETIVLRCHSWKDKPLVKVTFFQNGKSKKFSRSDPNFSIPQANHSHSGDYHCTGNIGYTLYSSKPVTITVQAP
human C1q (human), sequence (P02745 23-245 limits assumed, chain 1 of 3): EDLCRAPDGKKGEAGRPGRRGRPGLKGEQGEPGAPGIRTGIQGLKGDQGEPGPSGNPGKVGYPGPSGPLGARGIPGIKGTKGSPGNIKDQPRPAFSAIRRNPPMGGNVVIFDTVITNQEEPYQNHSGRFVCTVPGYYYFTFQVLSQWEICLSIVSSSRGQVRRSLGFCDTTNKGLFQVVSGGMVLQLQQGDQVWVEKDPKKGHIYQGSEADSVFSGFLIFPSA
human C1q (human), sequence (P02746 28-253 limits assumed, chain 2 of 3, further chain): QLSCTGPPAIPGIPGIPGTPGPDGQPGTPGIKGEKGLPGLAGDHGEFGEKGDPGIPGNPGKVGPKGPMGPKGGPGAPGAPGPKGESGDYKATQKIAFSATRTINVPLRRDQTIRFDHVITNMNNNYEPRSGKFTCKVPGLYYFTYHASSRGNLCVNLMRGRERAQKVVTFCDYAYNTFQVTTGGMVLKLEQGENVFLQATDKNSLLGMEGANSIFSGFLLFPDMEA
human C1q (human), sequence (P02747 29-245 limits assumed, chain 3 of 3, further chain): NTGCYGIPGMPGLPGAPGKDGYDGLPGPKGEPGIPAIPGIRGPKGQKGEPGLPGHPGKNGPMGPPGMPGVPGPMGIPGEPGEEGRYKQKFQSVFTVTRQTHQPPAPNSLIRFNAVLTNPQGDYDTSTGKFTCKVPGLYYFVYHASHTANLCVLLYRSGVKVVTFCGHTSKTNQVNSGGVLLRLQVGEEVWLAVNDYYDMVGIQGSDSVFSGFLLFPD
human FcγRIIIa (F158 allele) (human), sequence (P08637 17-208 limits assumed): as the sequence (P08637 17-208 F176V limits assumed) above, with V160F counted along it
human FcγRIIIb (human), sequence (O75015 17-200 limits assumed): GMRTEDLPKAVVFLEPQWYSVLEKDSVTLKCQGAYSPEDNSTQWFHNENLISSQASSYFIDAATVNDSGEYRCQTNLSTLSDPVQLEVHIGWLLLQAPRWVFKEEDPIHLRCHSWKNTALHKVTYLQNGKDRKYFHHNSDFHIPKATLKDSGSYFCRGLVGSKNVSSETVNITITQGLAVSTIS

**Q.** Which % Alexa 647-A+ cells [1] does the source give for FNI9 (antibody) here?
**A.** Its % Alexa 647-A+ cells is 84% and 83.5%.

**Q.** And the % Alexa 647-A+ cells [2]?
**A.** The % Alexa 647-A+ cells was 82.1% and 78%.

**Q.** And the % Alexa 647-A+ cells [3]?
**A.** The % Alexa 647-A+ cells was 66.1% and 71.3%.

**Q.** What about the % Alexa 647-A+ cells [4] of the same substance?
**A.** The % Alexa 647-A+ cells was 57% and 68.8%.

**Q.** And the % of cells in the Alexa 647-A positive gate [5]?
**A.** Its % of cells in the Alexa 647-A positive gate is 78%.

**Q.** What about the Kd (N1) of the same substance?
**A.** Its Kd is 0.0164 nM.

**Q.** And the Kd (N2)?
**A.** The Kd was under 0.001 nM.

**Q.** And the Kd (N9 NA (FIGS. 96A-96C))?
**A.** Its Kd is under 0.001 nM.

**Q.** And the Kd (N9)?
**A.** The Kd was under 0.001 nM.

**Q.** What about the lowest concentration at which binding was observed (EC50 scale class) [6] of the same substance?
**A.** Its lowest concentration at which binding was observed (EC50 scale class) is 0.4 mg/L.

**Q.** What about the lowest concentration at which binding was observed (EC50 scale class) [7] of the same substance?
**A.** The lowest concentration at which binding was observed (EC50 scale class) was 0.4 mg/L.

**Q.** What about the lowest concentration at which binding was observed (EC50 scale class) [8] of the same substance?
**A.** Its lowest concentration at which binding was observed (EC50 scale class) is 0.4 mg/L.

**Q.** What about the lowest concentration at which binding was observed (EC50 scale class) [9] of the same substance?
**A.** The lowest concentration at which binding was observed (EC50 scale class) was 0.4 mg/L.

**Q.** What about the lowest concentration at which binding was observed (EC50 scale class) [10] of the same substance?
**A.** Its lowest concentration at which binding was observed (EC50 scale class) is 0.4 mg/L.

**Q.** What about the lowest concentration at which binding was observed (EC50 scale class) [11] of the same substance?
**A.** Its lowest concentration at which binding was observed (EC50 scale class) is 0.4 mg/L.

**Q.** And the lowest concentration at which binding was observed (EC50 scale class) [12]?
**A.** The lowest concentration at which binding was observed (EC50 scale class) was 0.4 mg/L.

**Q.** And the lowest concentration at which binding was observed (EC50 scale class) [13]?
**A.** Its lowest concentration at which binding was observed (EC50 scale class) is 0.4 mg/L.

**Q.** And the lowest concentration at which binding was observed (EC50 scale class) [14]?
**A.** Its lowest concentration at which binding was observed (EC50 scale class) is 0.4 mg/L.

**Q.** And the lowest concentration at which binding was observed (EC50 scale class) [15]?
**A.** The lowest concentration at which binding was observed (EC50 scale class) was 0.4 mg/L.

**Q.** And the lowest concentration at which binding was observed (EC50 scale class) [16]?
**A.** Its lowest concentration at which binding was observed (EC50 scale class) is 50 mg/L.

**Q.** And the lowest concentration at which binding was observed (EC50 scale class) [17]?
**A.** The lowest concentration at which binding was observed (EC50 scale class) was 50 mg/L.

**Q.** What about the lowest concentration at which binding was observed (EC50 scale class) [18] of the same substance?
**A.** The lowest concentration at which binding was observed (EC50 scale class) was 0.4 mg/L.

**Q.** What about the Kd (NA-9) of the same substance?
**A.** The Kd was 0.088 nM.

**Q.** And the % of cells in the Alexa 647-A positive gate [19]?
**A.** Its % of cells in the Alexa 647-A positive gate is 82.1%.

**Q.** What about the % of cells in the Alexa 647-A positive gate [20] of the same substance?
**A.** The % of cells in the Alexa 647-A positive gate was 83.5%.

**Q.** And the % of cells in the Alexa 647-A positive gate [21]?
**A.** Its % of cells in the Alexa 647-A positive gate is 84%.

**Q.** What does the source list for “IgG1 antibody with Fc variant G236A_R292P_Y300L”?
**A.** FcγR reporter signaling, fold-change vs wt [cont'd] [22]: 6.15 fold; FcγR reporter signaling, fold-change vs wt [cont'd] [23]: 2.83 fold; FcγR reporter signaling, fold-change vs wt [cont'd] [24]: 1.87 fold; FcγR reporter signaling, fold-change vs wt [cont'd] (human FcγRIIb (human) [25]): 1.01 fold; fold-change vs FY1 rIgG1m3 (human C1q (human) [26]): 1.01 fold; fold-change vs FY1 rIgG1m3 (human FcRn (human) [27]): 0.8 fold; fold-change vs FY1 rIgG1m3 [28]: 3.7 fold; fold-change vs FY1 rIgG1m3 [29]: 2.7 fold; fold-change vs FY1 rIgG1m3 (human FcγRIIIb (human) [30]): 1.03 fold; fold-change to WT Fc [31]: 14.2 fold; fold-change vs FY1 rIgG1m3 [31]: 14.2 fold; fold-change to WT Fc [32]: 2.71 fold; fold-change vs FY1 rIgG1m3 [32]: 2.7 fold; fold-change to WT Fc (human FcγRIIb (human) [33]): 0.94 fold; fold-change vs FY1 rIgG1m3 (human FcγRIIb (human) [33]): 0.9 fold; fold-change to WT Fc (human C1q (human) [34]): 1.01 fold; fold-change vs wt (human C1q (human) [34]): 1.01 fold; fold-change vs wt (human FcRn (human) [35]): 0.83 fold; fold-change to WT Fc [36]: 3.71 fold; fold-change vs wt [36]: 3.71 fold; fold-change to WT Fc [37]: 2.69 fold; fold-change vs wt [37]: 2.69 fold; fold-change vs wt (human FcγRIIIb (human) [38]): 1.03 fold; fold-change vs wt [39]: 14.2 fold; fold-change vs wt [40]: 2.71 fold; fold-change vs wt (human FcγRIIb (human) [41]): 0.94 fold; fold-change to WT Fc (human FcRn (human) [42]): 0.828 fold; fold-change in binding vs fucosylated wild-type human IgG1 [43]: 14 fold; fold-change in binding vs fucosylated wild-type human IgG1 [44]: 2.7 fold
